# Assay results published in the supplement of paper PMC9170038.
# Tested on: MS2 coat protein
# Test: apparent KD of MS2 coat protein; designed switch direction (-1 OFF switch, 1 ON switch): -1; higher = weaker reporter binding
# Method in brief: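 Transcription of designed RNA switches on Illumina chips was done by stalled E. coli RNA polymerase. SNAP-549-labelled MS2 coat protein was then titrated in doubling steps from 0.7 or 1.5 nM to 3 µM, with steps of 0.8–1.5 h at the lowest and 10–20 min at the highest concentration. The per-design median over clusters of curve-fitted normalised fluorescence is reported as apparent KD.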
# [1] = Eterna round: R95, input ligand: FMN 200 uM
# [2] = Eterna round: R95, input ligand: microRNA oligo, concentration not stated
# [3] = Eterna round: R95, input ligand: none
# [4] = input ligand: microRNA oligo, concentration not stated
Sequence,apparent KD of MS2 coat protein [1] [nM],apparent KD of MS2 coat protein [2] [nM],apparent KD of MS2 coat protein [3] [nM],apparent KD of MS2 coat protein (input ligand: FMN 200 uM) [nM],apparent KD of MS2 coat protein [4] [nM],apparent KD of MS2 coat protein (input ligand: none) [nM]
AGCCCUUGUGUCAGGAUAUGCAUCCUUAAUGGACGGCAGAAGGGACAUGAGGAUCACCCAUGUAAAUAGAAAAU [Sodixeti] (puzzle: Brourd's mod of Exclusion 4),30.1,111,177,–,–,–
"AGCCUACAUGAGGAUCACCCAUGUCAGGAUAUCUCGCGACAUGUCAAGUUCACGUUGCAGAGAAGGGACUCGGG [Ononxe] (Eterna round: R96, puzzle: Exclusion 1)",–,–,–,108,41,54.1
AGCCUACAUGAGGAUCACCCAUGUCAGGAUAUCUCGCGACAUGUCAAGUUCACGUUGCAGAGAAGGGACUCGGG [Ononxe] (puzzle: Exclusion 1),–,47.8,–,–,–,–
"AGCGAUUCAGGAUAUACGGGUGGGCUGGAUCUUGGAGGAGUACAUGAGGAUCACCCAUGUAGAAGGGAAUUUUC [Eternabot (L2) Solution 35] (Eterna round: R97, puzzle: Exclusion 2)",–,–,–,95.5,–,40.2
"AGCGCCAUCGUGAGAUGGCGUAUUACAUGAGGAUCACCCAUGUAGGAUAUCGAUUGCUUUGCAGUCGAGAAGGGCAUGUUCUAG [JL ENG3 3.80 Mod G] (Eterna round: R96, puzzle: Exclusion NG 3)",–,–,–,82.4,35.8,73.6
"AGCUAGUCAGGAUAUACAAACAUGUCAAAAGACGUGAAGGGACAUGAGGAUCACCCAUGUAGAAGGGACUAGCA [Web Mod 74% 2] (Eterna round: R96, puzzle: Exclusion 2)",–,–,–,304,43.1,49.2
"AGCUAGUCAGGAUAUUCUAAUAAUUACAUGAGGAUCACCCAUGUGCAUAGACAAGGGUGUGAAGAAGGGACUAGCG [Omei Ex5 A7] (Eterna round: R97, puzzle: Exclusion 5)",–,–,–,797,–,2530
"AGCUAGUCAGGAUAUUCUAAUGAUUACAUGAGGAUCACCCAUGUGAAUGGACAAGGGUGUGAAGAAGGGACUAGCG [Omei Ex5 A10] (Eterna round: R97, puzzle: Exclusion 5)",–,–,–,426,–,4030
"AGCUAGUCAGUAGGAUAUGUAGGAUAUGUGGUUGAGGUUCACCCAACCACAUCAACGACAGAAGGACAGAAGGACUGGUUAGCA [pwkr exNG2 2xFMN 1xF5.5] (Eterna round: R96, puzzle: Exclusion NG 2)",–,–,–,2320,1210,2810
"AGCUAGUGCCGAGGAUAUACAUGAGGAUCACCCAUGUAAGCCAGUCGGUUUCUGACUGGCAAUAUGUAGAAGGCGGCGUUGGCA [JL ENG2 1.49] (Eterna round: R96, puzzle: Exclusion NG 2)",–,–,–,48.2,11.3,16.6
"AGCUAGUGCCGAGGAUAUGAUACAUGAGGAUCACCCAUGUGUAGGGUGUAUAUAUAUCAAUAAUAUUAGAAGGCGGCGUUGGCA [JL ENG2 1.47] (Eterna round: R96, puzzle: Exclusion NG 2)",–,–,–,785,480,1480
"AGCUGGUCAGGAUAUUUGGAGGGACUCCAAUGGUCCACGACGGAGAAGGGACAUGAGGAUCACCCAUGUGGUCG [Eternabot (L2) Solution 13] (Eterna round: R97, puzzle: Exclusion 4)",–,–,–,69.3,–,115
"AGCUGUGGCCGAGGAUAUACAUGAGGAUCACCCAUGUUACAUAAUUCGACAUGAGAAUACGAACCGUAGAAGGCGGUCUCAGCA [Eli eng2 - 002] (Eterna round: R96, puzzle: Exclusion NG 2)",–,–,–,127,37.8,66.1
"AGCUGUGGCCGAGGAUAUAUACAUGAGGAUCACCCAUGUAGGUGCGGAUACUCGCACCAAUAAGUGUAGAAGGCGGUCUCAGCA [Eli eng2 - 058] (Eterna round: R96, puzzle: Exclusion NG 2)",–,–,–,10.7,13.1,13.3
"AGCUGUGGCCGAGGAUAUCCACAUGAGGAUCACCCAUGUUGAUACGCCGUUAAAGGCGAUAUAAGGGAGAAGGCGGUCUCAGCA [Eli eng2 - 051] (Eterna round: R96, puzzle: Exclusion NG 2)",–,–,–,12.5,7.18,9.26
"AGCUGUGGCCGAGGAUAUCUAAUAAUCCCAACCGAAAUAUAAUCGGACAUGAGGAUCACCCAUGUAGAGAAGGCGGUCUCAGCA [Eli eng2 - 066] (Eterna round: R96, puzzle: Exclusion NG 2)",–,–,–,–,96.6,–
"AGCUUUUUGUUCGUCUUACACAUGAGGAUCACCCAUGUGUUGGACCGCAUCGAUAGAUGUAGACCGAGAAGCAUGGG [Omdei Mir OFFv1 C8] (Eterna round: R97, puzzle: Sensor, turn-off variant 1)",–,–,–,24.5,–,23.8

Sequence,apparent KD of MS2 coat protein [1] [nM],apparent KD of MS2 coat protein [2] [nM],apparent KD of MS2 coat protein [3] [nM],apparent KD of MS2 coat protein (input ligand: FMN 200 uM) [nM],apparent KD of MS2 coat protein [4] [nM],apparent KD of MS2 coat protein (input ligand: none) [nM]
"AGGAAACAUGAGGAUCACCCAUGUGAGGAUAUUUGAAAGAAAAGAAAAGAAAGAAGAAGAAGAAGGCACAAGAA [Merneith] (Eterna round: R96, puzzle: Exclusion 1)",–,–,–,–,23.8,–
"AGGACGAUAGGAUAUACAUGAGGAUCACCCAUGUGCAUAAGAAUAUGCCAAUCCACGCGUAGAAGGAUCAUAAU [Eternabot (Original) Solution 11] (Eterna round: R97, puzzle: Exclusion 3)",–,–,–,65.4,–,28.1
"AGGAGACAUGAGGAUCACCCAUGUAAGGAUAUGUAGGAGCAGCCGGCUGGUUCGCUCCGCAGAAGGUGCGCGGU [Eternabot (L2) Solution 11] (Eterna round: R97, puzzle: Exclusion 1)",–,–,–,49.3,–,41.3
"AGGCCACAUGAGGAUCACCCAUGUUAGGAUAUCGAGAGUACAACGAGCCGUCACUUCCCGAGAAGGGACAAGGG [Eternabot (Original) Solution 22] (Eterna round: R97, puzzle: Exclusion 1)",–,–,–,65.3,–,54.5
AGGGAUAAAGGAUAUACAUGAGGAUCACCCAUGUUGAGGAAAGUUAGAUGAGGAGGAAGUAGAAGGUUAGGCGA [JR_Exclu3_Sub086] (puzzle: Exclusion 3),31.1,31.7,40.4,–,–,–
"AGGUAGUCAGGAUAUUAGGAGUAGCGGGAUAACGCUACGAGUGAGAAGGGACAUGAGGAUCACCCAUGUUUUGU [JR_Ex4_Sub068] (Eterna round: R97, puzzle: Exclusion 4)",–,–,–,24.3,–,23.1
"AGGUCACAUGAGGAUCACCCAUGUCAGGAUAUCGUCACUGGAGCUGCGGCUCCAGUGACGAGAAGGGACAAUUA [E1/6-A3] (Eterna round: R97, puzzle: Exclusion 1)",–,–,–,372,–,77.2
"AGGUGCUUCUGGAGACAUGAGGAUCACCCAUGUUGAGUUAGCGAGGAUAUCGGUAAUGCAUGUGAUGAGAAGGCGCAAACCGAU [Ex NG3 #48] (Eterna round: R96, puzzle: Exclusion NG 3)",–,–,–,36.8,40.3,46.1
"AGGUGUAGAGGAUAUACAGUGUAUUACAUGAGGAUCACCCAUGUCCCUCAAUGAGUGUCAGUAGAAGGCUACACCA [Omei Ex5 C3] (Eterna round: R97, puzzle: Exclusion 5)",–,–,–,329,–,403
"AGGUGUAGAGGAUAUACUGCAAAGCACAUGAGGAUCACCCAUGUCCCUCUAUGAAAUUAAGUAGAAGGCUACACCA [Omei Ex5 C5] (Eterna round: R97, puzzle: Exclusion 5)",–,–,–,88.6,–,77.1
"AGUAACUAUCACGAAAGUGAUAGUUACAAUAGCAGUGGAACAUGAGGAUCACCCAUGUCCUCAUUUGCUCGUCUUAU [Sensor 3 - 22] (puzzle: Sensor v3, turn-off variant 2)",36.2,21.6,38.4,–,–,–
"AGUAACUAUCACGAAAGUGAUAGUUACACAAGUGAAUAAACAUGAGGAUCACCCAUGUCCUCAUUUGCUCGUCUUAU [Sensor 3 - 16] (puzzle: Sensor v3, turn-off variant 2)",418,365,499,–,–,–
"AGUACUAACACGAAAGUGUUAGUACAAUAAGCUAGUGGAACAUGAGGAUCACCCAUGUCCUCAUUAGCUCGUCUUAA [Mat - Sensor v3 - Turn-off var 2 - D34] (puzzle: Sensor v3, turn-off variant 2)",14.2,29.2,15.5,–,–,–
"AGUACUAACACGAAAGUGUUAGUACAAUAAGCUUGUAGAACAUGAGGAUCACCCAUGUCCUCAUAAGCUCGUCUUAU [Mat - Sensor v3 - Turn-off var 2 - D48] (puzzle: Sensor v3, turn-off variant 2)",52.1,442,53.5,–,–,–
"AGUACUAACACGAAAGUGUUAGUACAAUAAGCUUGUGAAACAUGAGGAUCACCCAUGUCCUCAUAGGCUCGUCUUAU [salish99_TOv2_r3_054] (puzzle: Sensor v3, turn-off variant 2)",26.3,607,18.3,–,–,–
"AGUACUAACACGAUAGUGUUAGUACAAUAAGCUUGUGUUACAUGAGGAUCACCCAUGUCCUCAUAAGCUCGUCUUAU [Mat - Sensor v3 - Turn-off var 2 - D54] (puzzle: Sensor v3, turn-off variant 2)",105,30.4,129,–,–,–
